Data from the Human Domainome abundance scans (Beltran et al. 2025).

B1: Homeobox protein cut-like 1, residues 548 to 629; numbered along this chain, P39880 (parent)
chain: GEEMDTAEIARQVKEQLIKHNIGQRIFGHYVLGLSQGSVSEILARPKPWNKLTVRGKEPFHKMKQFLSDEQNILALRSIQGR

Variants of: B1
Test: abundance fitness (aPCA) (normalised: wild type 0, dead -1); higher = more abundant; growth selection in yeast, the domain comes from the species named
Settings: Homo sapiens

Abundance fitness: each site, then its substitutions
S40: P -0.258; G -0.06; L -0.101; M -0.051; W -0.131; N -0.018; F -0.162; D 0.078; I -0.117; Q 0.017; H 0.123; Y -0.102; A 0.057; C -0.063; E 0.13; K 0.032; T 0.055
V31: S -0.806; T -0.488; L -0.391; H -0.988; C -0.179; N -0.713; K -1.04; M -0.431; W -0.133; G -0.766; R -0.947; Q -0.882; Y -0.2; E -0.681; D -0.839
R25: T 0.036; I -0.122; E 0.158; L -0.192; M -0.079; G 0.082; N 0.017; A 0.102; K 0.022; H 0.059; S 0.078; P -0.068; Y -0.003; V -0.088; F -0.096; W -0.072; D 0.138; Q 0.019
I22: N -0.701; P -0.718; Q -0.797; K -0.931; V -0.071; T -0.687; Y -0.916; S -0.801; F -0.49; L -0.239; M -0.612; G -0.86
G23: W -0.268; P 0.08; I -0.309; N 0.105; R -0.068; Y -0.108; H -0.009; A -0.004; L -0.081; M -0.12; V -0.196; C -0.054; F -0.293; Q 0.043; K 0.012; T -0.013; D 0.114; S 0.023
S35: R -0.209; W -0.311; A -0.112; C -0.086; Y -0.298; I -0.308; L -0.384; D 0.154; F -0.126; G -0.039; M -0.278; Q -0.029; V -0.236; K -0.035; H -0.238; P 0.062; N -0.081
F27: Q -0.747; Y -1.15; I -0.8; A -1.01; D -0.862; W -0.572; R -0.884; P -0.861; M -0.857; C -1.03; L -0.47; S -0.906; G -0.894; V -0.815; H -1.14; K -0.99; N -0.787; E -0.906; T -0.914
S38: F -0.181; K 0.061; P -0.079; D 0.125; R -0.711; W -0.273; G -0.049; I -0.008; Y -0.112; N -0.027; A 0.072; V 0.097; C 0.025; H -0.031; M 0.11; E 0.141; Q 0.113; T -0.005; L -0.005
G33: P -0.882; E -0.312; K -0.217; T -0.798; W -0.969; A -0.341; D -0.268; V -0.895; S -0.297; R -0.351; N -0.106; L -0.822; C -0.4; Y -1.16; F -0.883; H -0.111; Q -0.221; I -1.15
G37: F -0.075; A 0.037; N -0.016; S 0.024; V -0.051; R 0.029; T 0.063; K 0.091; W -0.057; H 0.006; E 0.136; L -0.022; C -0.013; P -0.084; I -0.17; Y -0.034; M 0.002; Q 0.092
L32: V -0.41; D -0.773; G -0.839; Y -1.01; I -0.562; Q -0.791; K -0.986; A -0.732; R -0.943; T -0.741; H -0.723; P -0.894; C -0.281; S -0.793; F -0.988; M -0.317; N -0.768; E -0.792
I26: W -0.083; V 0.034; G -0.547; L -0.002; D 0.023; M -0.082; H -0.056; Y -0.107; A -0.056; P -0.517; C -0.058; F -0.078; N -0.261; R -0.401; K -0.152; T 0.009; S -0.14
G28: Q -0.457; H -0.485; C -0.223; P -0.726; S -0.05; M -0.241; V -0.452; E -0.188; D -0.349; W -0.764; K -0.745; N -0.259; A 0.018; Y -0.374; R -0.52; F -0.329; T -0.47; I -0.233
E41: G -0.293; H -0.353; I -0.477; F -0.758; D -0.061; C -0.219; K -0.727; A -0.13
Q24: P -0.079; M -0.032; V 0.043; Y -0.013; N -0.069; T -0.069; E 0.053; S -0.118; W 0.025; G -0.386; R -0.159; F -0.094; C -0.108; I -0.032; A -0.129; H 0.021; D -0.091
Q36: D 0.056; L 0.008; R -0.049; K 0.025; T -0.034; W -0.039; I -0.059; A 0.021; E 0.055; Y -0.045; H -0.017; N -0.048; P 0.071; C -0.157; V -0.025; M -0.104
H29: K 0.022; D -0.036; R -0.051; Y -0.125; T -0.022; P -0.621; S -0.081; Q 0.038; W -0.102; G -0.357; F -0.15; M -0.052; E 0.06; L -0.1; N -0.012
L34: R -0.393; C -0.047; Q -0.173; N -0.362; G -0.461; M 0.09; V -0.151; T -0.213; W -0.264; K -0.346; A -0.228; F -0.167; I -0.052; Y -0.26; P -0.519; D -0.274; S -0.349
Y30: M -0.122; I -0.024; D -0.337; K -0.091; Q -0.099; L -0.111; G -0.552; W -0.184; T -0.147; R -0.201; H 0.014; P -0.742; A -0.082; E -0.034; F -0.126; V -0.053; N -0.282; C -0.065
V39: P -0.642; M -0.249; H -0.844; L -0.101; S -0.316; G -0.725; Q -0.676; Y -0.574; T 0.086; K -0.898; F -0.165; D -0.732; I -0.212; E -0.456; N -0.697; W -0.33; R -0.915; A -0.177; C -0.025
